From the Immune Epitope Database (IEDB)
Each block holds one sequence with its values, some of them ahead of it.

Experiments:
HLA-B*45:06 = assay: IEDB peptide-MHC binding, purified MHC/competitive/fluorescence; filed as Kd, often an IC50 or EC50 that approximates it; ≥ and ≤ were set here for values at or beyond the usual limits of such assays; details: source organism: human gammaherpesvirus 4
HLA-B*15:42 = assay: as above
HLA-B*83:01 = assay: as above
HLA-C*04:01 = assay: as above
HLA-B*58:01 = assay: IEDB peptide-MHC binding, purified MHC/direct/fluorescence; filed as Kd, often an IC50 or EC50 that approximates it; ≥ and ≤ were set here for values at or beyond the usual limits of such assays
HLA-B*40:01 = assay: as above
HLA-A*69:01 [1] = assay: as above
HLA-B*07:02 = assay: as above
HLA-B*35:01 = assay: as above
HLA-A*01:01 = assay: as above
HLA-A*03:01 [2] = assay: as above
HLA-A*02:01 [3] = assay: as above
HLA-B*15:01 [4] = assay: as above
HLA-B*27:05 = assay: as above
HLA-A*26:01 [5] = assay: as above
HLA-A*11:01 = assay: as above
HLA-B*08:01 = assay: as above
HLA-A*31:01 = assay: as above
HLA-B*44:02 = assay: as above
HLA-A*02:01 [6] = assay: IEDB peptide-MHC binding, purified MHC/competitive/fluorescence; filed as Kd, often an IC50 or EC50 that approximates it; ≥ and ≤ were set here for values at or beyond the usual limits of such assays
HLA-A*02:11 = assay: as above
HLA-A*24:03 [7] = assay: IEDB peptide-MHC binding, purified MHC/direct/fluorescence; filed as Kd, often an IC50 or EC50 that approximates it; ≥ and ≤ were set here for values at or beyond the usual limits of such assays; details: source organism: Giardia lamblia ATCC 50803
HLA-A*68:02 = assay: IEDB peptide-MHC binding, purified MHC/competitive/fluorescence; filed as Kd, often an IC50 or EC50 that approximates it; ≥ and ≤ were set here for values at or beyond the usual limits of such assays; details: source organism: Yersinia pestis Nepal516
HLA-B*46:01 [8] = assay: IEDB peptide-MHC binding, purified MHC/direct/fluorescence; filed as Kd, often an IC50 or EC50 that approximates it; ≥ and ≤ were set here for values at or beyond the usual limits of such assays; details: source organism: Yellow fever virus 17D
HLA-C*14:02 = assay: as above; details: source organism: Yellow fever virus
HLA-B*51:01 [9] = assay: as above; details: source organism: Yellow fever virus 17D
HLA-C*15:02 = assay: as above; details: source organism: Yellow fever virus
HLA-A*24:03 [10] = assay: IEDB peptide-MHC binding, purified MHC/competitive/fluorescence; filed as Kd, often an IC50 or EC50 that approximates it; ≥ and ≤ were set here for values at or beyond the usual limits of such assays; details: source organism: Encephalitozoon cuniculi GB-M1
HLA-B*46:01 [11] = assay: as above; details: source organism: Encephalitozoon cuniculi GB-M1
HLA-B*18:01 = assay: as above; details: source organism: Encephalitozoon cuniculi GB-M1
HLA-A*29:02 = assay: as above; details: source organism: Encephalitozoon cuniculi GB-M1
HLA-A*03:01 [12] = assay: as above; details: source organism: Encephalitozoon cuniculi GB-M1
HLA-B*51:01 [13] = assay: as above; details: source organism: Encephalitozoon cuniculi GB-M1
HLA-A*02:19 = assay: as above
HLA-B*57:01 = assay: as above; details: source organism: Encephalitozoon cuniculi GB-M1
HLA-A*02:03 [14] = assay: as above; details: source organism: Encephalitozoon cuniculi GB-M1
HLA-B*15:01 [15] = assay: as above; details: source organism: Encephalitozoon cuniculi GB-M1
HLA-A*26:01 [16] = assay: as above; details: source organism: Encephalitozoon cuniculi GB-M1
HLA-B*39:01 = assay: as above; details: source organism: Encephalitozoon cuniculi GB-M1
HLA-A*02:12 = assay: as above; details: source organism: Encephalitozoon cuniculi GB-M1
HLA-B*27:03 = assay: as above; details: source organism: Encephalitozoon cuniculi GB-M1
HLA-A*02:02 = assay: IEDB peptide-MHC binding, purified MHC/competitive/radioactivity; filed as Kd, often an IC50 or EC50 that approximates it; ≥ and ≤ were set here for values at or beyond the usual limits of such assays; details: source organism: HIV-1 M:B_ARV2/SF2
HLA-A*02:03 [17] = assay: as above; details: source organism: HIV-1 M:B_ARV2/SF2
HLA-A*02:06 = assay: as above; details: source organism: HIV-1 M:B_ARV2/SF2
HLA-A*69:01 [18] = assay: IEDB peptide-MHC binding, purified MHC/competitive/fluorescence; filed as Kd, often an IC50 or EC50 that approximates it; ≥ and ≤ were set here for values at or beyond the usual limits of such assays; details: source organism: Human immunodeficiency virus type 1 (BH5 ISOLATE)
[19] = source organism: human gammaherpesvirus 4
[20] = source organism: Salmonella enterica
[21] = source organism: Giardia lamblia ATCC 50803
[22] = source organism: Yersinia pestis Nepal516
[23] = source organism: Vibrio cholerae
[24] = source organism: Encephalitozoon cuniculi GB-M1
[25] = source organism: Human immunodeficiency virus type 1 (BH5 ISOLATE)

Sequence: WEMRAGREI
Kd (HLA-B*45:06): ≥ 5 µM | Kd (HLA-B*15:42; [19]): ≥ 5 µM | Kd (HLA-B*83:01; [19]): ≥ 5 µM | Kd (HLA-C*04:01; [19]): ≥ 5 µM

Sequence: AHSKAETEA
Kd (HLA-B*58:01; [20]): ≥ 20 µM | Kd (HLA-B*40:01; [20]): ≥ 20 µM | Kd (HLA-A*69:01 [1]; [20]): ≥ 20 µM | Kd (HLA-B*07:02; [20]): ≥ 20 µM | Kd (HLA-B*35:01; source organism: Salmonella enterica subsp. enterica serovar Typhimurium): ≥ 20 µM | Kd (HLA-A*01:01; [20]): ≥ 20 µM | Kd (HLA-A*03:01 [2]; [20]): ≥ 20 µM | Kd (HLA-A*02:01 [3]; [20]): ≥ 20 µM | Kd (HLA-B*15:01 [4]; [20]): ≥ 20 µM | Kd (HLA-B*27:05; [20]): ≥ 20 µM | Kd (HLA-A*26:01 [5]; [20]): ≥ 20 µM | Kd (HLA-A*11:01; [20]): ≥ 20 µM | Kd (HLA-B*08:01; [20]): ≥ 20 µM | Kd (HLA-A*31:01; [20]): ≥ 20 µM | Kd (HLA-B*44:02; [20]): ≥ 20 µM

Sequence: SLQECVKMA
Kd (HLA-A*02:01 [6]; [21]): 0.0007 µM | Kd (HLA-A*02:11; [21]): 0.0021 µM

Sequence: QTSTLYDFY
Kd (HLA-B*58:01; [21]): 3.79 µM | Kd (HLA-B*40:01; [21]): ≥ 20 µM | Kd (HLA-A*69:01 [1]; [21]): ≥ 20 µM | Kd (HLA-B*07:02; [21]): ≥ 20 µM | Kd (HLA-A*24:03 [7]): ≥ 20 µM | Kd (HLA-B*35:01; [21]): 0.0286 µM | Kd (HLA-A*01:01; [21]): 0.0397 µM | Kd (HLA-A*03:01 [2]; [21]): ≥ 20 µM | Kd (HLA-A*02:01 [3]; [21]): ≥ 20 µM | Kd (HLA-B*15:01 [4]; [21]): 1.71 µM | Kd (HLA-B*27:05; [21]): ≥ 20 µM | Kd (HLA-A*26:01 [5]; [21]): ≥ 20 µM | Kd (HLA-A*11:01; [21]): ≥ 20 µM | Kd (HLA-B*08:01; [21]): ≥ 20 µM | Kd (HLA-A*31:01; [21]): ≥ 20 µM | Kd (HLA-B*44:02; [21]): ≥ 20 µM

Sequence: MTHPQSEAA
Kd (HLA-A*68:02): ≤ 0.0001 µM | Kd (HLA-B*15:42; [22]): ≥ 5 µM | Kd (HLA-B*83:01; [22]): ≥ 5 µM | Kd (HLA-C*04:01; [22]): ≥ 5 µM

Sequence: RVLDCRTAF
Kd (HLA-B*35:01; source organism: Yellow fever virus): 0.324 µM | Kd (HLA-B*46:01 [8]): ≥ 20 µM | Kd (HLA-C*14:02): 0.349 µM | Kd (HLA-B*51:01 [9]): ≥ 20 µM | Kd (HLA-B*15:01 [4]; source organism: Yellow fever virus 17D): 0.108 µM | Kd (HLA-C*15:02): ≥ 20 µM

Sequence: WAGIWGGKL
Kd (HLA-B*58:01; [23]): ≥ 20 µM | Kd (HLA-B*40:01; [23]): ≥ 20 µM | Kd (HLA-A*69:01 [1]; [23]): 0.242 µM | Kd (HLA-B*07:02; [23]): 13 µM | Kd (HLA-B*35:01; [23]): 0.342 µM | Kd (HLA-A*01:01; [23]): ≥ 20 µM | Kd (HLA-A*03:01 [2]; [23]): ≥ 20 µM | Kd (HLA-A*02:01 [3]; [23]): ≥ 20 µM | Kd (HLA-B*15:01 [4]; [23]): ≥ 20 µM | Kd (HLA-B*27:05; [23]): ≥ 20 µM | Kd (HLA-A*26:01 [5]; [23]): ≥ 20 µM | Kd (HLA-A*11:01; [23]): ≥ 20 µM | Kd (HLA-B*08:01; [23]): ≥ 20 µM | Kd (HLA-A*31:01; [23]): ≥ 20 µM | Kd (HLA-B*44:02; [23]): ≥ 20 µM

Kd (HLA-A*24:03 [10]): ≥ 20 µM | Kd (HLA-B*46:01 [11]): ≥ 20 µM | Kd (HLA-B*18:01): ≥ 20 µM | Kd (HLA-A*29:02): ≥ 20 µM | Kd (HLA-A*03:01 [12]): ≥ 20 µM | Kd (HLA-B*51:01 [13]): ≥ 20 µM | Kd (HLA-A*02:19; [24]): ≥ 20 µM | Kd (HLA-B*57:01): ≥ 20 µM | Kd (HLA-A*02:01 [6]; [24]): ≥ 20 µM | Kd (HLA-A*02:03 [14]): ≥ 20 µM | Kd (HLA-B*15:01 [15]): ≥ 20 µM | Kd (HLA-A*26:01 [16]): ≥ 20 µM | Kd (HLA-B*39:01): ≥ 20 µM | Kd (HLA-A*02:12): 0.298 µM | Kd (HLA-B*27:03): ≥ 20 µM | Kd (HLA-A*02:11; [24]): ≥ 20 µM
Sequence: NLFEIEWEE

Sequence: VLAEAMSQV
Kd (HLA-A*02:02): 0.00243 µM | Kd (HLA-A*02:03 [17]): 0.00437 µM | Kd (HLA-A*02:06): 0.0131 µM | Kd (HLA-A*69:01 [18]): 0.0827 µM | Kd (HLA-A*02:19; [25]): 0.00125 µM | Kd (HLA-A*02:01 [6]; [25]): 0.0275 µM | Kd (HLA-A*02:11; [25]): ≤ 0.0001 µM
